To fix the notation:
B1: YW629.51 (antibody, human IgG1, V domains shown)
VH: EVQLVESGGGLVQPGGSLRLSCAASGFTFSSYAMHWVRQAPGKGLEWVSRISSNGGSTYYADSVKGRFTISRDNSKNTLYLQMNSLRAEDTAVYYCARWIPQSYPFASYKSGFDYWGQGTLVTVSS
VL: DIQMTQSPSSLSASVGDRVTITCRASQGISSYLAWYQQKPGKAPKLLIYDASSLESGVPSRFSGSGSGTDFTLTISSLQPEDFATYYCQQYYSYPFTFGQGTKVEIKR
notes: also called P6C.51; bivalent LRP5 antibody (P6C.51)
B2: YW629.51.61 (antibody, human IgG1, V domains shown)
VH: EVQLVESGGGLVQPGGSLRLSCAASGFTFSSYAMHWVRQAPGKGLEWVSRISSNGGSTYYADSVKGRFTISRDNSKNTLYLQMNSLRAEDTAVYYCARWIPQSYPFASYKSGFDYWGQGTLVTVSS
VL: DIQMTQSPSSLSASVGDRVTITCRASQVMGYYLAWYQQKPGKAPKLLIYDASSLESGVPSRFSGSGSGTDFTLTISSLQPEDFATYYCQQYYSYPFTFGQGTKVEIKR
notes: also called P6C.51.61; PC6.51.61
B3: YW629.42 (antibody, human IgG1, V domains shown)
VH: EVQLVESGGGLVQPGGSLRLSCAASGFTFSSYAMSWVRQAPGKGLEWVGAISSSGSSTYYADSVKGRFTISRDNSKNTLYLQMNSLRAEDTAVYYCARYYRYAPYRSLGMDVWGQGTLVTVSS
VL: DIQMTQSPSSLSASVGDRVTITCRASQGISSYLAWYQQKPGKAPKLLIYAASSLQSGVPSRFSGSGSGTDFTLTISSLQPEDFATYYCQQYYSYPFTFGQGTKVEIKR
notes: also called P6C.42
B4: YW629.42.65 (antibody, human IgG1, V domains shown)
VH: EVQLVESGGGLVQPGGSLRLSCAASGFTFSSYAMSWVRQAPGKGLEWVGGISSPGSSTYYADSVKGRFTISRDNSKNTLYLQMNSLRAEDTAVYYCARYYRYAPYRSLGMDVWGQGTLVTVSS
VL: DIQMTQSPSSLSASVGDRVTITCRASQGISSYLAWYQQKPGKAPKLLIYAASSLQSGVPSRFSGSGSGTDFTLTISSLQPEDFATYYCQQYYLYPFTFGQGTKVEIKR
notes: also called P6C.42.65
B5: YW629.42.58 (antibody, human IgG1, V domains shown)
VH: EVQLVESGGGLVQPGGSLRLSCAASGFTFSSYAMSWVRQAPGKGLEWVGAISSPGWSTYYADSVKGRFTISRDNSKNTLYLQMNSLRAEDTAVYYCARYYRYAPYRSLGMDVWGQGTLVTVSS
VL: DIQMTQSPSSLSASVGDRVTITCRASQGISSYLAWYQQKPGKAPKLLIYAASSLQSGVPSRFSGSGSGTDFTLTISSLQPEDFATYYCQQYYSYPFTFGQGTKVEIKR
notes: also called P6C.42.58
B6: YW629.51.77 (antibody, human IgG1, V domains shown)
VH: EVQLVESGGGLVQPGGSLRLSCAASGFTFSSYAMHWVRQAPGKGLEWVSRISSNGGSTYYADSVKGRFTISRDNSKNTLYLQMNSLRAEDTAVYYCARWIPQSYPFASYKSGFDYWGQGTLVTVSS
VL: DIQMTQSPSSLSASVGDRVTITCRASQVIYGYLAWYQQKPGKAPKLLIYDASTRESGVPSRFSGSGSGTDFTLTISSLQPEDFATYYCQQYYSYPFTFGQGTKVEIKR
notes: also called P6C.51.77
B7: YW629.42.57 (antibody, human IgG1, V domains shown)
VH: EVQLVESGGGLVQPGGSLRLSCAASGFTFSSYAMSWVRQAPGKGLEWVGAISAPGSSTYYADSVKGRFTISRDNSKNTLYLQMNSLRAEDTAVYYCARYYRYAPYRSLGMDVWGQGTLVTVSS
VL: DIQMTQSPSSLSASVGDRVTITCRASQGISSYLAWYQQKPGKAPKLLIYAASSLQSGVPSRFSGSGSGTDFTLTISSLQPEDFATYYCQQYYSYPFTFGQGTKVEIKR
notes: also called P6C.42.57
B8: YW629.51.80 (antibody, human IgG1, V domains shown)
VH: EVQLVESGGGLVQPGGSLRLSCAASGFTFSSYAMHWVRQAPGKGLEWVSRISSNGGSTYYADSVKGRFTISRDNSKNTLYLQMNSLRAEDTAVYYCARWIPQSYPFASYKSGFDYWGQGTLVTVSS
VL: DIQMTQSPSSLSASVGDRVTITCRASQAIYSYLAWYQQKPGKAPKLLIYDASSLESGVPSRFSGSGSGTDFTLTISSLQPEDFATYYCQQYYSYPFTFGQGTKVEIKR
notes: also called P6C.51.80
B9: YW629.51.63 (antibody, human IgG1, V domains shown)
VH: EVQLVESGGGLVQPGGSLRLSCAASGFTFSSYAMHWVRQAPGKGLEWVSRISSNGGSTYYADSVKGRFTISRDNSKNTLYLQMNSLRAEDTAVYYCARWIPQSYPFASYKSGFDYWGQGTLVTVSS
VL: DIQMTQSPSSLSASVGDRVTITCRASQSIYYYLAWYQQKPGKAPKLLIYDASSLESGVPSRFSGSGSGTDFTLTISSLQPEDFATYYCQQYYSYPFTFGQGTKVEIKR
notes: also called P6C.51.63
B10: YW629.51.13 (antibody, human IgG1, V domains shown)
VH: EVQLVESGGGLVQPGGSLRLSCAASGFTFSSYAMHWVRQAPGKGLEWVSRISSNGGSTYYADSVKGRFTISRDNSKNTLYLQMNSLRAEDTAVYYCARWIPQSYPFRSYKSGFDYWGQGTLVTVSS
VL: DIQMTQSPSSLSASVGDRVTITCRASQGISSYLAWYQQKPGKAPKLLIYDASSLESGVPSRFSGSGSGTDFTLTISSLQPEDFATYYCQQYYSYPFTFGQGTKVEIKR
notes: also called P6C.51.13
B11: YW629.51.78 (antibody, human IgG1, V domains shown)
VH: EVQLVESGGGLVQPGGSLRLSCAASGFTFSSYAMHWVRQAPGKGLEWVSRISSNGGSTYYADSVKGRFTISRDNSKNTLYLQMNSLRAEDTAVYYCARWIPQSYPFASYKSGFDYWGQGTLVTVSS
VL: DIQMTQSPSSLSASVGDRVTITCRASQGIFYYLAWYQQKPGKAPKLLIYDASTLESGVPSRFSGSGSGTDFTLTISSLQPEDFATYYCQQYYSYPFTFGQGTKVEIKR
notes: also called P6C.51.78

The target in the first assay is LRP5 (transfected into reporter cells). The assay can be described thus: cell-based or functional assay.
With B1, the “TOPFlash luciferase reporter, recombinant Norrin (cells transfected with LRP5 and FZD-4)” value is more than 2 fold.
Consider B2, for which the “TOPFlash luciferase reporter, Norrin as ligand (cells transfected with LRP5 and FZD-4)” value was 3 fold; the “TOPFlash luciferase reporter, Wnt7b as ligand (cells transfected with LRP5 and FZD-4)” value is 2 fold.

In another assay the target is T1, human LRP5 domains E3-E4 (E644-Q1263 of SEQ ID NO: 42) (human, UniProt O75197 644-1263).
T1 construct: Soluble fragment made in-house; It was biotinylated for phage sorting; also called LRP5-E3/E4; LRP5E3/E4
T1 sequence: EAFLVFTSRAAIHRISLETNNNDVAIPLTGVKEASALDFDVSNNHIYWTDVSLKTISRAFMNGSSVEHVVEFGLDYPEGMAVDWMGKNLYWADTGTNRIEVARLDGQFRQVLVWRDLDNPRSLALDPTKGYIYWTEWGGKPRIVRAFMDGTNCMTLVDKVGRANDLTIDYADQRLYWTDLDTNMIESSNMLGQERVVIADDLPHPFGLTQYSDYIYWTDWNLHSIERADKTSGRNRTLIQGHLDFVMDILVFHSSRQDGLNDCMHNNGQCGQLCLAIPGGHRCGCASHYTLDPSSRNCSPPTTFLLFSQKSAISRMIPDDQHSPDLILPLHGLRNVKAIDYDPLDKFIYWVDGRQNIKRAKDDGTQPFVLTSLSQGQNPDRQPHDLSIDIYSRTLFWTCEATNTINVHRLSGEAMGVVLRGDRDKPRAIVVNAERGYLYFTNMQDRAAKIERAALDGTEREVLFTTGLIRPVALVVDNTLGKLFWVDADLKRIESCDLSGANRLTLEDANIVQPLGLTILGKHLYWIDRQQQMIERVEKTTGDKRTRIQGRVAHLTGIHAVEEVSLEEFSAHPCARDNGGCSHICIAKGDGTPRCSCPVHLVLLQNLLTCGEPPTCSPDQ
Briefly: SPR, BIAcore T100, IgG captured by anti-human Fc, LRP5E3/E4 as analyte, 25 C. The procedure:
Binding affinities of anti-LRP5E3/E4 IgGs were measured by Surface Plasmon Resonance (SPR) using a BIAcore™-T100 instrument. Anti-LRP5E3/E4 human IgGs were captured by mouse anti-human Fc antibody (GE Healthcare, cat# BR-1008-39) coated on CM5 biosensor chips to achieve approximately 200 response units (RU). For kinetics measurements, two-fold serial dilutions ([…]) of human LRP5E3/E4 (GNE) were injected in HBS-P buffer (10 mM HEPES, pH 7.4, 0.15 M NaCl, 0.005% surfactant P20) at 25° C. with a flow rate of 30 μl/min. Association rates (kₒₙ) and dissociation rates (koff) were calculated using a simple one-to-one Langmuir binding model (BIAcore Evaluation Software version 2.0.2). The equilibrium dissociation constant (KD) was calculated as the ratio koff/kₒₙ.
On the technique in general: Surface plasmon resonance follows binding to a sensor surface in real time, without labels.
Take B1: the affinity, expressed as Kd, was 13 nM; the off-rate constant (koff) came to 0.00309 s⁻¹; the kon turned out to be 237000 M⁻¹ s⁻¹.
For B3 the same measures were 51.6 nM, 0.00116 s⁻¹ and 22600 M⁻¹ s⁻¹.
In the same order, the values of B4 are 2.54 nM, 9.63e-05 s⁻¹ and 37900 M⁻¹ s⁻¹.
For B5, the Kd was determined as 2.78 nM, the koff came to 8.69e-05 s⁻¹ and the association rate constant (kon) came to 31300 M⁻¹ s⁻¹.
For B2 the same measures were 0.47 nM, 0.000115 s⁻¹ and 244000 M⁻¹ s⁻¹.
In turn, B6 showed a Kd of 0.438 nM, an off-rate (koff) of 0.000165 s⁻¹ and an on-rate (kon) of 376000 M⁻¹ s⁻¹.
For B7 the same measures were 5.42 nM, 0.000163 s⁻¹ and 30100 M⁻¹ s⁻¹.
In the same order, the values of B8 are 0.268 nM, 0.000104 s⁻¹ and 387000 M⁻¹ s⁻¹.
Molecule B9 returned a dissociation constant (Kd) of 0.592 nM, a koff of 0.000199 s⁻¹ and an on-rate (kon) of 337000 M⁻¹ s⁻¹.
Turning to B10, binding was put at a Kd of 1.13 nM, the dissociation rate constant (koff) is 0.000369 s⁻¹ and the on-rate (kon) was 327000 M⁻¹ s⁻¹.
In the same order, the values of B11 are 0.192 nM, 7.24e-05 s⁻¹ and 378000 M⁻¹ s⁻¹.

Usually Kd stands for the concentration at which binding is half-saturated. A lower Kd goes with tighter binding. One may read the koff as the first-order rate constant of dissociation. A high value points to a short-lived complex. By kon is commonly meant the second-order rate constant of association. Read a high kon as fast association.

The record behind these values is patent publication US20190010228A1 (Genentech, published 2019).
